B1: Tumor necrosis factor receptor superfamily member 11B (Mus musculus), O08712 (parent)
chain: MNKWLCCALLVLLDIIEWTTQETLPPKYLHYDPETGHQLLCDKCAPGTYLKQHCTVRRKTLCVPCPDHSYTDSWHTSDECVYCSPVCKELQSVKQECNRTHNRVCECEEGRYLEIEFCLKHRSCPPGSGVVQAGTPERNTVCKKCPDGFFSGETSSKAPCIKHTNCSTFGLLLIQKGNATHDNVCSGNREATQKCGIDVTLCEEAFFRFAVPTKIIPNWLSVLVDSLPGTKVNAESVERIKRRHSSQEQTFQLLKLWKHQNRDQEMVKKIIQDIDLCESSVQRHLGHSNLTTEQLLALMESLPGKKISPEEIERTRKTCKSSEQLLKLLSLWRIKNGDQDTLKGLMYALKHLKTSHFPKTVTHSLRKTMRFLHSFTMYRLYQKLFLEMIGNQVQSVKISCL

Variants of: B1
Conditions: with Tnfsf11, O35235-1
Tnfsf11, O35235-1, sequence (O35235 whole entry): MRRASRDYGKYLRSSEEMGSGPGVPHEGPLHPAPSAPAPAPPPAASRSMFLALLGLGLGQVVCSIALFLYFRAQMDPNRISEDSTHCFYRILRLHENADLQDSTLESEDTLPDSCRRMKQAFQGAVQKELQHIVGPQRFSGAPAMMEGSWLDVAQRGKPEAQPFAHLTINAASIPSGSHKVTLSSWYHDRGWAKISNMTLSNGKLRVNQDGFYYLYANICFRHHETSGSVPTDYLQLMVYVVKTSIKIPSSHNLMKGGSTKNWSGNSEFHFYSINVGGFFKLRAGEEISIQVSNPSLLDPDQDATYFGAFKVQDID

effect of a mutation on the interaction | Variant
increasing interaction strength | MNKWLCCALLVLLDIIEWTTQETLPPKYLHYDPETGHQLLCDKCAPGTYLKQHCTVRRKTLCVPCPDHSYTDSWHTSDECVYCSPVCKELQSVKQECNRTHNRVCECEEGRYLEIELCLKHRSCPPGSGVVQAGTPERNTVCKKCPDGFFSGETSSKAPCIKHTNCSTFGLLLIQKGNATHDNVCSGNREATQKCGIDVTLCEEAFFRFAVPTKIIPNWLSVLVDSLPGTKVNAESVERIKRRHSSQEQTFQLLKLWKHQNRDQEMVKKIIQDIDLCESSVQRHLGHSNLTTEQLLALMESLPGKKISPEEIERTRKTCKSSEQLLKLLSLWRIKNGDQDTLKGLMYALKHLKTSHFPKTVTHSLRKTMRFLHSFTMYRLYQKLFLEMIGNQVQSVKISCL [F117L]

Variants of: B1
Conditions: with Tnfsf11, O35235-1
Remark: another data set of the same source

effect of a mutation on the interaction | Variant
increasing interaction strength | MNKWLCCALLVLLDIIEWTTQETLPPKYLHYDPETGHQLLCDKCAPGTYLKQHCTVRRKTLCVPCPDHSYTDSWHTSDECVYCSPVCKELQSVKQECNRTHNRVCECEEGRYLEIEACLKHRSCPPGSGVVQAGTPERNTVCKKCPDGFFSGETSSKAPCIKHTNCSTFGLLLIQKGNATHDNVCSGNREATQKCGIDVTLCEEAFFRFAVPTKIIPNWLSVLVDSLPGTKVNAESVERIKRRHSSQEQTFQLLKLWKHQNRDQEMVKKIIQDIDLCESSVQRHLGHSNLTTEQLLALMESLPGKKISPEEIERTRKTCKSSEQLLKLLSLWRIKNGDQDTLKGLMYALKHLKTSHFPKTVTHSLRKTMRFLHSFTMYRLYQKLFLEMIGNQVQSVKISCL [F117A]
